Reference: patent US20120322135A1

B1: LC22F6 (protein)
light: DIVMTQSPLSLPVTPGEPASISCRSSQSLLHSNGFNYLDWYLQKPGQSPQLLIYLGSTRASGVPDRFSGSGSGTDFTLRISRVEAEDVGVYFCMQAVQTPFTFGPGTRLDIKRTVAAPSVFIFPPSDEQLKSGTASVVCLLNNFYPREAKVQWKVDNALQSGNSQESVTEQDSKDSTYSLSSTLTLSKADYEKHKVYACEVTHQGLSSPVTKSFNRGEC
B2: LC23F1 (protein)
light: DIVMTQTPLSSPVTLGQPASISCRSSQSLVHSDGNTYLSWLQQRPGQPPRLLIYKISNRFSGVPDRFSGSGAGTDFTLKISRVEAEDVGIYYCMQGLQTPLTFGGGTKVDLKRTVAAPSVFIFPPSDEQLKSGTASVVCLLNNFYPREAKVQWKVDNALQSGNSQESVTEQDSKDSTYSLSSTLTLSKADYEKHKVYACEVTHQGLSSPVTKSFNRGEC

How the values were obtained:
[1] = target: rabies virus antibody (antigen), first of the two types used in the screening ELISA (AS 1) (rabies virus); test: ELISA, 150 µl culture supernatant
[2] = target: rabies virus antibody (antigen), second of the two types used in the screening ELISA (AS 2) (rabies virus); test: ELISA, 150 µl culture supernatant
[3] = target: rabies virus antibody (antigen), first of the two types used in the screening ELISA (AS 1) (rabies virus); test: ELISA, 10 ml culture cell breakage liquid
[4] = target: rabies virus antibody (antigen), second of the two types used in the screening ELISA (AS 2) (rabies virus); test: ELISA, 10 ml culture cell breakage liquid

Row | Binder | AS 1 (Antigen Specificity, ELISA signal) [1] | AS 2 (Antigen Specificity, ELISA signal) [2] | AS 1 (Antigen Specificity, ELISA signal) [3] | AS 2 (Antigen Specificity, ELISA signal) [4]
1 | B1 | 0.275 | 0.175 | 0.5 | 2.77
2 | B2 | 0.249 | 0.219 | 0.821 | 2.95
